Legend:
[1] = test system: HeLa Kyoto; assay: thermal stability score vs G1/S (z-score of summed log2 fold changes over temperatures); higher = more thermally stable than in G1/S
[2] = test system: HeLa Kyoto; assay: solubility change mitosis vs G1/S (difference of NP-40 vs SDS log2 ratios) (log2 ratio difference); higher = more soluble in mitosis
[3] = test system: HeLa Kyoto; assay: solubility in G1/S (NP-40 vs SDS abundance) (log2 ratio); higher = more soluble; conditions: cell cycle stage: G1/S
[4] = test system: HeLa Kyoto; assay: melting temperature (median over replicates), in situ; higher = more thermally stable
[5] = cell cycle stage: early G1 (4.5 h after nocodazole release)
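Wherever melting temperature (median over replicates), in situ is given: HeLa Kyoto cells synchronized by double thymidine or nocodazole block, proteins quantified by TMT10plex mass spectrometry, three independent biological replicates.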
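Wherever solubility change mitosis vs G1/S (difference of NP-40 vs SDS log2 ratios) is given: synchronized HeLa Kyoto cells (double thymidine block for G1/S, nocodazole release for mitosis), protein amounts in NP-40 versus SDS lysates quantified by mass spectrometry, three biological replicates.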
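Wherever solubility in G1/S (NP-40 vs SDS abundance) is given: HeLa Kyoto cells arrested at G1/S by double thymidine block, proteins quantified by TMT10plex mass spectrometry in mild NP-40 versus SDS extracts, three biological replicates.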
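Wherever thermal stability score vs G1/S (z-score of summed log2 fold changes over temperatures) is given: synchronized HeLa Kyoto cells, proteins quantified by TMT10plex mass spectrometry, three biological replicates, mitosis taken 0.5 h after nocodazole release, G1/S directly after double thymidine block.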

Chain of XPO4 (chain, as listed by the source): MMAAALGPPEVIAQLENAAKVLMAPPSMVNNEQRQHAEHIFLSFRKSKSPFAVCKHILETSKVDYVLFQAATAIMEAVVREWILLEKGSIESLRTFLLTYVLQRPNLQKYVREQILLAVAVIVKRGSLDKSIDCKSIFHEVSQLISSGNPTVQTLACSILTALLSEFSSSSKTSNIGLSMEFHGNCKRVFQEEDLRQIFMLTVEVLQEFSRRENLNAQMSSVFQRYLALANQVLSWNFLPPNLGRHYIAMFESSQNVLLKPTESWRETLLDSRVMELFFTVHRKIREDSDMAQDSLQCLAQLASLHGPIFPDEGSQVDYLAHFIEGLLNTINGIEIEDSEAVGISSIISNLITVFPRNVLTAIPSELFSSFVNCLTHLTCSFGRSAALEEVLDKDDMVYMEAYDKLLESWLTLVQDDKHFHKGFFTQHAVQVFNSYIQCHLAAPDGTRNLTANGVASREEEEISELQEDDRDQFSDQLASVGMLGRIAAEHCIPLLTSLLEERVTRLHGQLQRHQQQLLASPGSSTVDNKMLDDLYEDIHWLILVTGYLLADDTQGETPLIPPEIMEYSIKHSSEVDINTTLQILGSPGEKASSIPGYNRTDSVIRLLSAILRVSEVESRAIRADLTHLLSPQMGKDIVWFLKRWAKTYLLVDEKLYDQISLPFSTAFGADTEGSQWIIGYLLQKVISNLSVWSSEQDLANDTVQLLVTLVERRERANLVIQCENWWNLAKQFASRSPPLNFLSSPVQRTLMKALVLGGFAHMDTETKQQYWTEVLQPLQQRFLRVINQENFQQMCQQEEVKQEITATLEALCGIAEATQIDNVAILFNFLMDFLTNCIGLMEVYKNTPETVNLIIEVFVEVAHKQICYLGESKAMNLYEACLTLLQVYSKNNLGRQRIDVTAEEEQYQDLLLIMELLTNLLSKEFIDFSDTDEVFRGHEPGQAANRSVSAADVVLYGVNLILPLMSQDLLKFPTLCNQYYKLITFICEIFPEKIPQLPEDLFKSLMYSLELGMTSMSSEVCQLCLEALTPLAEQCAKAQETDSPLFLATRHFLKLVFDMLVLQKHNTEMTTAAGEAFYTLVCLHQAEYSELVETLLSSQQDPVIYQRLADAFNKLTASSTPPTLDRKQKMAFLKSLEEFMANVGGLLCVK

Substance	thermal stability score [1, 5]	thermal stability score ([1]; cell cycle stage: mitosis)	solubility change mitosis (log2) [2]	solubility in G1/S (log2) [3]	melting temperature ([4]; cell cycle stage: G1/S)	melting temperature ([4]; cell cycle stage: mitosis)
MTTFGAVAEWRLPSLRRATLWIPQWFAKKAIFNSPLEAAMAFPHLQQPSFLLASLKADSINKPFAQQCQDLVKVIEDFPAKELHTIFPWLVESIFGSLDGVLVGWNLRCLQGRVNPVEYSIVMEFLDPGGPMMKLVYKLQAEDYKFDFPVSYLPGPVKASIQECILPDSPLYHNKVQFTPTGGLGLNLALNPFEYYIFFFALSLITQKPLPVSLHVRTSDCAYFILVDRYLSWFLPTEGSVPPPLSSSPGGTSPSPPPRTPAIPFASYGLHHTSLLKRHISHQTSVNADPASHEIWRSETLLQVFVEMWLHHYSLEMYQKMQSPHAKLEVLHYRLSVSSALYSPAQPSLQALHAYQESFTPTEEHVLVVRLLLKHLHAFANSLKPEQASPSAHSHATSPLEEFKRAAVPRFVQQKLYLFLQHCFGHWPLDASFRAVLEMWLSYLQPWRYAPDKQAPGSDSQPRCVSEKWAPFVQENLLMYTKLFVGFLNRALRTDLVSPKHALMVFRVAKVFAQPNLAEMIQKGEQLFLEPELVIPHRQHRLFTAPTFTGSFLSPWPPAVTDASFKVKSHVYSLEGQDCKYTPMFGPEARTLVLRLAQLITQAKHTAKSISDQCAESPAGHSFLSWLGFSSMDTNGSYTANDLDEMGQDSVRKTDEYLEKALEYLRQIFRLSEAQLRQFTLALGTTQDENGKKQLPDCIVGEDGLILTPLGRYQIINGLRRFEIEYQGDPELQPIRSYEIASLVRTLFRLSSAINHRFAGQMAALCSRDDFLGSFCRYHLTEPGLASRHLLSPVGRRQVAGHTRGPRLSLRFLGSYRTLVSLLLAFFVASLFCVGPLPCTLLLTLGYVLYASAMTLLTERGKLHQP [SMPD4]	-0.683	-0.99	0.185	-0.601	51.7 °C	50.2 °C
MLCWGNASFGQLGLGGIDEEIVLEPRKSDFFINKRVRDVGCGLRHTVFVLDDGTVYTCGCNDLGQLGHEKSRKKPEQVVALDAQNIVAVSCGEAHTLALNDKGQVYAWGLDSDGQLGLVGSEECIRVPRNIKSLSDIQIVQVACGYYHSLALSKASEVFCWGQNKYGQLGLGTDCKKQTSPQLLKSLLGIPFMQVAAGGAHSFVLTLSGAIFGWGRNKFGQLGLNDENDRYVPNLLKSLRSQKIVYICCGEDHTAALTKEGGVFTFGAGGYGQLGHNSTSHEINPRKVFELMGSIVTEIACGRQHTSAFVPSSGRIYSFGLGGNGQLGTGSTSNRKSPFTVKGNWYPYNGQCLPDIDSEEYFCVKRIFSGGDQSFSHYSSPQNCGPPDDFRCPNPTKQIWTVNEALIQKWLSYPSGRFPVEIANEIDGTFSSSGCLNGSFLAVSNDDHYRTGTRFSGVDMNAARLLFHKLIQPDHPQISQQVAASLEKNLIPKLTSSLPDVEALRFYLTLPECPLMSDSNNFTTIAIPFGTALVNLEKAPLKVLENWWSVLEPPLFLKIVELFKEVVVHLLKLYKIGIPPSERRIFNSFLHTALKVLEILHRVNEKMGQIIQYDKFYIHEVQELIDIRNDYINWVQQQAYGMDVNHGLTELADIPVTICTYPFVFDAQAKTTLLQTDAVLQMQMAIDQAHRQNVSSLFLPVIESVNPCLILVVRRENIVGDAMEVLRKTKNIDYKKPLKVIFVGEDAVDAGGVRKEFFLLIMRELLDPKYGMFRYYEDSRLIWFSDKTFEDSDLFHLIGVICGLAIYNCTIVDLHFPLALYKKLLKKKPSLDDLKELMPDVGRSMQQLLDYPEDDIEETFCLNFTITVENFGATEVKELVLNGADTAVNKQNRQEFVDAYVDYIFNKSVASLFDAFHAGFHKVCGGKVLLLFQPNELQAMVIGNTNYDWKELEKNTEYKGEYWAEHPTIKIFWEVFHELPLEKKKQFLLFLTGSDRIPILGMKSLKLVIQSTGGGEEYLPVSHTCFNLLDLPKYTEKETLRSKLIQAIDHNEGFSLI [HERC4]	-0.179	-0.361	-0.179	-0.169	51.4 °C	51 °C
MLDFLAENNLCGQAILRIVSCGNAIIAELLRLSEFIPAVFRLKDRADQQKYGDIIFDFSYFKGPELWESKLDAKPELQDLDEEFRENNIEIVTRFYLAFQSVHKYIVDLNRYLDDLNEGVYIQQTLETVLLNEDGKQLLCEALYLYGVMLLVIDQKIEGEVRERMLVSYYRYSAARSSADSNMDDICKLLRSTGYSSQPGAKRPSNYPESYFQRVPINESFISMVIGRLRSDDIYNQVSAYPLPEHRSTALANQAAMLYVILYFEPSILHTHQAKMREIVDKYFPDNWVISIYMGITVNLVDAWEPYKAAKTALNNTLDLSNVREQASRYATVSERVHAQVQQFLKEGYLREEMVLDNIPKLLNCLRDCNVAIRWLMLHTADSACDPNNKRLRQIKDQILTDSRYNPRILFQLLLDTAQFEFILKEMFKQMLSEKQTKWEHYKKEGSERMTELADVFSGVKPLTRVEKNENLQAWFREISKQILSLNYDDSTAAGRKTVQLIQALEEVQEFHQLESNLQVCQFLADTRKFLHQMIRTINIKEEVLITMQIVGDLSFAWQLIDSFTSIMQESIRVNPSMVTKLRATFLKLASALDLPLLRINQANSPDLLSVSQYYSGELVSYVRKVLQIIPESMFTSLLKIIKLQTHDIIEVPTRLDKDKLRDYAQLGPRYEVAKLTHAISIFTEGILMMKTTLVGIIKVDPKQLLEDGIRKELVKRVAFALHRGLIFNPRAKPSELMPKLKELGATMDGFHRSFEYIQDYVNIYGLKIWQEEVSRIINYNVEQECNNFLRTKIQDWQSMYQSTHIPIPKFTPVDESVTFIGRLCREILRITDPKMTCHIDQLNTWYDMKTHQEVTSSRLFSEIQTTLGTFGLNGLDRLLCFMIVKELQNFLSMFQKIILRDRTVQDTLKTLMNAVSPLKSIVANSNKIYFSAIAKTQKIWTAYLEAIMKVGQMQILRQQIANELNYSCRFDSKHLAAALENLNKALLADIEAHYQDPSLPYPKEDNTLLYEITAYLEAAGIHNPLNKIYITTKRLPYFPIVNFLFLIAQLPKLQYNKNLGMVCRKPTDPVDWPPLVLGLLTLLKQFHSRYTEQFLALIGQFICSTVEQCTSQKIPEIPADVVGALLFLEDYVRYTKLPRRVAEAHVPNFIFDEFRTVL [KIAA0196]	0.232	-0.00652	-0.117	-0.217	50.7 °C	50 °C
MDAPGALAQTAAPGPGRKELKIVIVGDGGCGKTSLLMVYSQGSFPEHYAPSVFEKYTASVTVGSKEVTLNLYDTAGQEDYDRLRPLSYQNTHLVLICYDVMNPTSYDNVLIKWFPEVTHFCRGIPMVLIGCKTDLRKDKEQLRKLRAAQLEPITYMQGLSACEQIRAALYLECSAKFRENVEDVFREAAKVALSALKKAQRQKKRRLCLLL [RHOF]	0.493	0.369	-0.104	-0.0436	53.8 °C	53 °C
DYNC1H1	0.0561	2.96	-0.141	-0.318	51.8 °C	51.2 °C
HINT3	-1.15	-1.14	-0.161	0.186	55.1 °C	54.7 °C
MATLITSTTAATAASGPLVDYLWMLILGFIIAFVLAFSVGANDVANSFGTAVGSGVVTLKQACILASIFETVGSVLLGAKVSETIRKGLIDVEMYNSTQGLLMAGSVSAMFGSAVWQLVASFLKLPISGTHCIVGATIGFSLVAKGQEGVKWSELIKIVMSWFVSPLLSGIMSGILFFLVRAFILHKADPVPNGLRALPVFYACTVGINLFSIMYTGAPLLGFDKLPLWGTILISVGCAVFCALIVWFFVCPRMKRKIEREIKCSPSESPLMEKKNSLKEDHEETKLSVGDIENKHPVSEVGPATVPLQAVVEERTVSFKLGDLEEAPERERLPSVDLKEETSIDSTVNGAVQLPNGNLVQFSQAVSNQINSSGHYQYHTVHKDSGLYKELLHKLHLAKVGDCMGDSGDKPLRRNNSYTSYTMAICGMPLDSFRAKEGEQKGEEMEKLTWPNADSKKRIRMDSYTSYCNAVSDLHSASEIDMSVKAEMGLGDRKGSNGSLEEWYDQDKPEVSLLFQFLQILTACFGSFAHGGNDVSNAIGPLVALYLVYDTGDVSSKVATPIWLLLYGGVGICVGLWVWGRRVIQTMGKDLTPITPSSGFSIELASALTVVIASNIGLPISTTHCKVGSVVSVGWLRSKKAVDWRLFRNIFMAWFVTVPISGVISAAIMAIFRYVILRM [SLC20A1]	0.26	-0.79	-0.149	-0.24		55.9 °C
MNPSMKQKQEEIKENIKNSSVPRRTLKMIQPSASGSLVGRENELSAGLSKRKHRNDHLTSTTSSPGVIVPESSENKNLGGVTQESFDLMIKENPSSQYWKEVAEKRRKALYEALKENEKLHKEIEQKDNEIARLKKENKELAEVAEHVQYMAELIERLNGEPLDNFESLDNQEFDSEEETVEDSLVEDSEIGTCAEGTVSSSTDAKPCI [GMNN]	-7.44	-7.77	-0.0263	0.46	57.5 °C	52.7 °C
XPO4	0.898	0.432	-0.113	-0.0631	52.4 °C	52 °C
